Results from IntAct's records for PubMed 29039417.

B1: BBSome complex member BBS2 (Homo sapiens), Q9BXC9 (parent)
chain: MLLPVFTLKLRHKISPRMVAIGRYDGTHPCLAAATQTGKVFIHNPHTRNQHVSASRVFQSPLESDVSLLSINQAVSCLTAGVLNPELGYDALLVGTQTNLLAYDVYNNSDLFYREVADGANAIVLGTLGDISSPLAIIGGNCALQGFNHEGSDLFWTVTGDNVNSLALCDFDGDGKKELLVGSEDFDIRVFKEDEIVAEMTETEIVTSLCPMYGSRFGYALSNGTVGVYDKTSRYWRIKSKNHAMSIHAFDLNSDGVNELITGWSNGKVDARSDRTGEVIFKDNFSSAIAGVVEGDYRMDGHIQLICCSVDGEIRGYLPGTAEMRGNLMDTSAEQDLIRELSQKKQNLLLELRNYEENAKAELASPLNEADGHRGIIPANTRLHTTLSVSLGNETQTAHTELRISTSNDTIIRAVLIFAEGIFTGESHVVHPSIHNLSSSICIPIVPPKDVPVDLHLKAFVGYRSSTQFHVFESTRQLPRFSMYALTSLDPASEPISYVNFTIAERAQRVVVWLGQNFLLPEDTHIQNAPFQVCFTSLRNGGHLHIKIKLSGEITINTDDIDLAGDIIQSMASFFAIEDLQVEADFPVYFEELRKVLVKVDEYHSVHQKLSADMADHSNLIRSLLVGAEDARLMRDMKTMKSRYMELYDLNRDLLNGYKIRCNNHTELLGNLKAVNQAIQRAGRLRVGKPKNQVITACRDAIRSNNINTLFKIMRVGTASS
partner: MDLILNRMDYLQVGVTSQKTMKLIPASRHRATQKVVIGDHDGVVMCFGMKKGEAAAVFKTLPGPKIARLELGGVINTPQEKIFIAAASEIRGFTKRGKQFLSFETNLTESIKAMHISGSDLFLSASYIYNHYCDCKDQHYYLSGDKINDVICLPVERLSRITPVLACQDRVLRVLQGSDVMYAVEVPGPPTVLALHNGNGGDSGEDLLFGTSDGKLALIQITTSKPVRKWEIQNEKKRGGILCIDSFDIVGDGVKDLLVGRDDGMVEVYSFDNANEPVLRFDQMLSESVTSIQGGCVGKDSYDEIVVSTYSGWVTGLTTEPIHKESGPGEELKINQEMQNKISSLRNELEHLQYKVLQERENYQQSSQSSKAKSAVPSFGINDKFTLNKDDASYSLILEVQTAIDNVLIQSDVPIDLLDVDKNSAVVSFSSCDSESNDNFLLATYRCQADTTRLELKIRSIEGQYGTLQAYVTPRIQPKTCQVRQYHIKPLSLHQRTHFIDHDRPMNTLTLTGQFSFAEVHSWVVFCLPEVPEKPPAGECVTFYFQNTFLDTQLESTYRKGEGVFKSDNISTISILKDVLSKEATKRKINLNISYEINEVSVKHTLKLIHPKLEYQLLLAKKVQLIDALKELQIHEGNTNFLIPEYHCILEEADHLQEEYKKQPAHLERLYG

Variants of: B1
Conditions: with BBS7, Q8IWZ6-2

| Variant | effect of a mutation on the interaction |
| --- | --- |
| I702E | with no effect |
| A572E | with no effect |
| H543E | with no effect |
| D601A | with no effect |
| D601E | with no effect |
| S537E | with no effect |
| G670C | disrupting interaction strength |
| F531A | with no effect |
| C698K | with no effect |
| N500K | with no effect |
| V582E | with no effect |
| V582K | with no effect |
| D336A | with no effect |
| I554K | with no effect |
| I554E | with no effect |
| N664A | with no effect |
| E646A | with no effect |
| N358K | with no effect |
| T555A | with no effect |
| T555K | with no effect |
| W513A | disrupting interaction strength |
| E356K | with no effect |

| Variant | effect of a mutation on the interaction |
| --- | --- |
| P521K | with no effect |
| R506A | disrupting interaction strength |
| T386K | with no effect |
| S573A | with no effect |
| K344A | with no effect |
| C534A | with no effect |
| A529K | with no effect |
| G552R | disrupting interaction strength |
| G372E | with no effect |
| N656K | with no effect |
| C442K | with no effect |
| R686E | disrupting interaction strength |
| T406E | with no effect |
| I679A | disrupting interaction strength |
| M571E | with no effect |
| I561K | with no effect |
| I376F | disrupting interaction strength |
| R374E | with no effect |
| A414K | with no effect |
| E592K | with no effect |
| T475A | with no effect |
| D649A | with no effect |

| Variant | effect of a mutation on the interaction |
| --- | --- |
| V596A | with no effect |
| Y355E | with no effect |
| Y484Q | disrupting interaction strength |
| F501E | disrupting interaction strength |
| E369K | with no effect |
| N676T | disrupting interaction strength |
| P495K | with no effect |
| L383K | with no effect |
| V429K | with no effect |
| S605K | with no effect |
| I707A | with no effect |
| N368E | with no effect |
| L337A | with no effect |
| L672A | with no effect |
| S618A | with no effect |
| N517A | with no effect |
| I412A | with no effect |
| E578K | with no effect |
| I556A | with no effect |
| T718E | with no effect |
| A398K | with no effect |
| G688E | disrupting interaction strength |

| Variant | effect of a mutation on the interaction |
| --- | --- |
| E334K | with no effect |
| S611A | with no effect |
| I404A | with no effect |
| R715E | with no effect |
| I377K | with no effect |
| L519K | with no effect |
| P378K | with no effect |
| P378A | with no effect |
| L580A | with no effect |
| L328E | with no effect |
| L328K | with no effect |
| E426K | with no effect |
| F586A | with no effect |
| D700K | with no effect |
| F574E | with no effect |
| F574A | with no effect |
| E394A | with no effect |
| A492K | with no effect |
| V694K | with no effect |
| Y498K | with no effect |
| E494A | with no effect |
| I567A | with no effect |
